{"source": "paper doi:10.1101/2021.12.15.472832", "molecular_target": "mouse PARP13 ZnF5-WWE1-WWE2 (residues 476 to 673) (mouse) (UniProt Q3UPF5)", "experiment": "SEC-MALS", "data": [{"substance": "mouse PARP13 ZnF5-WWE1-WWE2 (residues 476 to 673) (from UniProt Q3UPF5 476-673) (domain or fragment)", "values": [{"measurement": "percent of the scattering mass in the dimer peak", "value": 4, "unit": "%"}, {"measurement": "stoichiometry N", "value": 2}]}]}
